These results are taken from paper PMC7801609, “Isolation of MERS-related coronavirus from lesser bamboo bats that uses DPP4 and infects human-DPP4-transgenic mice” (Nature Communications, 2021).

Some results are limits rather than exact numbers.

Holding throughout (assay): SPR; BIAcore X100, CM5 chip, 25 °C; […]; HBS-P+ buffer ([…]
Background: SPR reads the build-up and loss of mass on a sensor chip optically.

In experiment [1] the target is HKU4-RBD fused to a C-terminal His-tag (Tylonycteris-bat-CoV-HKU4) (UniProt A3EX94).
Experiment [2] deals with MERS-RBD fused to a C-terminal His-tag (MERS-CoV) (UniProt K9N5Q8).
Experiment [3] deals with peptidase domain of hDPP4 (residues 39-766) fused to a C-terminal His-tag (human, UniProt P27487 39-766). Conditions: both partners purified.
Chain of peptidase domain of hDPP4 (residues 39-766) fused to a C-terminal His-tag (human, UniProt P27487 39-766) (P27487 39-766): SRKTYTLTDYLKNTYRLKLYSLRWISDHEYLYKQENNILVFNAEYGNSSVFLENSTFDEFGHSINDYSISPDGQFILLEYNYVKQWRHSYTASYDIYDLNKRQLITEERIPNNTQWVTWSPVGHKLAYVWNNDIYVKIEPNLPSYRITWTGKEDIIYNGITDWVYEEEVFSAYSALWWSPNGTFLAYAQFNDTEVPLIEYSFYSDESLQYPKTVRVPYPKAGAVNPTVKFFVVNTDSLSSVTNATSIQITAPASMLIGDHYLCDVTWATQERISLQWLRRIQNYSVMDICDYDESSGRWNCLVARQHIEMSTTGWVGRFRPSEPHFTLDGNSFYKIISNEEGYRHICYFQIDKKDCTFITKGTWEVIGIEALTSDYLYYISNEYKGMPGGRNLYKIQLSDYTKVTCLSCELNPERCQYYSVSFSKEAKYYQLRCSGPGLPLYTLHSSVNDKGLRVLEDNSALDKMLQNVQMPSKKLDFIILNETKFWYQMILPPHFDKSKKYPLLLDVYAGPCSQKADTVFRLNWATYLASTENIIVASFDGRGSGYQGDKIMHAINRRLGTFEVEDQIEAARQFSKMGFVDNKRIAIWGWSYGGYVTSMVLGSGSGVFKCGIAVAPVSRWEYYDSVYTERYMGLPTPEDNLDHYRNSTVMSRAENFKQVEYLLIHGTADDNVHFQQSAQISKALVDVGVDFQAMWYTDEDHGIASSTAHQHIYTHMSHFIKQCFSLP

With “peptidase domain of dcDPP4 (residues 39-765) fused to a C-terminal His-tag (domain or fragment)”, the Kd (usually the concentration at which binding is half-saturated) in experiment [1] is > 47.7 µM; in experiment [2] it was > 18.7 µM.
In turn, “peptidase domain of hDPP4 (residues 39-766) fused to a C-terminal His-tag (from UniProt P27487 39-766) (domain or fragment)” displayed a Kd in experiment [1] of 1.1 µM.
In turn, “peptidase domain of TpDPP4 (residues 37-764) fused to a C-terminal His-tag (domain or fragment)” had a Kd in experiment [1] of 2.58 µM.

B1: MERS-RBD fused to a C-terminal His-tag (domain or fragment)
chain: EAKPSGSVVEQAEGVECDFSPLLSGTPPQVYNFKRLVFTNCNYNLTKLLSLFSVNDFTCSQISPAAIASNCYSSLILDYFSYPLSMKSDLSVSSAGPISQFNYKQSFSNPTCLILATVPHNLTTITKPLKYSYINKCSRFLSDDRTEVPQLVNANQYSPCVSIVPSTVWEDGDYYRKQLSPLEGGGWLVASGSTVAMTEQLQMGFGITVQYGTDTNSVCPKLEFANDTKIASQLGNCVEY
Molecule B1 had a dissociation constant Kd in experiment [3] of 0.632 µM.
